For experiment [1], the target named is HLA-C01:02 (C1) on 721.221 cells (human | human (endogenous in 721.221)).
The target in experiment [2] is HLA-C07:01 (C1) on 721.221 cells (human | human (endogenous in 721.221)).

Where only a bound is given, the exact number is not on record here.

In experiment [1], “KIR2DL2 reporter (2DL2–2DS1TM chimeric molecule, KIR2DL2*001) (receptor)” yielded a GFP-positive NFAT-GFP reporter cells after overnight coculture with 721.221 transfectants (E:T 1:3) (% GFP-positive cells) below 5. Besides, the GFP-positive NFAT-GFP reporter cells after overnight coculture with 721.221 transfectants (E:T 1:3) in experiment [2] was above 20 % GFP cells.

The values above are taken from article PMC5372792.
